The text below walks through data of paper PMC8457831, “Structural basis for diguanylate cyclase activation by its binding partner in Pseudomonas aeruginosa” (eLife, 2021).

In assay [1] the target is T1, SiaD (Pseudomonas aeruginosa, UniProt A0A069QEY1). Kind of assay: ITC (also HPLC assay of c-di-GMP production from GTP). The format is binding. Details: gene pleD_6; SiaD alone, full length.
Assay [2] addresses T1, SiaD. Kind of assay: X-ray crystal structure of SiaC–SiaD–GpCpp complex, […] Å. Type of assay: binding. Details: gene pleD_6; full-length SiaD (redefined start at the upstream ATG codon); with SiaC (2:4 SiaD–SiaC complex).
In assay [3] the target is T1, SiaD. Kind of assay: HPLC DGC activity assay with […] c-di-GMP; thermal shift (+[…] ℃ at […]); SEC; inhibition abolished by R201A. Type of assay: biochemical. Details: gene pleD_6; full-length SiaD, alone and in the SiaC–SiaD complex.
Assay [4] has as its target SiaD (full length, sumo-His tag removed) (Pseudomonas aeruginosa). Kind of assay: SEC-MALS; single proteins: SiaC at 1.5 mg/ml, SiaD at 8 mg/ml, WTC-030S5 column, 20 mM HEPES pH 7.0, 150 mM NaCl, DTT. Background: Size exclusion chromatography separates by hydrodynamic size, large species first.
The target is the same in assay [5]. Kind of assay: crystal structure; SiaC-SiaD complex (10 mg/ml) with GpCpp 1:5, sitting drops at 18°C, space group C222(1), 2.65 Å.
Assay [6] shares this target. The experiment in a line: SEC-MALS; SiaC-SiaD complexes (wild type and SiaD motif mutants) at 2 mg/ml, WTC-030S5 column, 20 mM HEPES pH 7.0, 150 mM NaCl, DTT.
For assay [7] the target is unchanged. Kind of assay: SEC-MALS; SiaD alone at 4 mg/ml, WTC-030S5 column, 20 mM HEPES pH 7.0, 150 mM NaCl, 1 mM DTT.
Assay [8] has the same target. Kind of assay: native gel or EMSA; blue native PAGE, 8% gel, SiaD (25 ug) alone or mixed with excess SiaC (35 ug), 50 min at 15 mA, Coomassie stain. (In general: In EMSA bound probe runs differently from free probe, usually more slowly.)
Assay [9] has the same target. The experiment in a line: SAXS; synchrotron solution SAXS (SEC-SAXS for SiaD), 20 mM HEPES pH 8.0, 150 mM NaCl, 1 mM DTT, 25°C; 8 mg/ml SiaD or 11 mg/ml SiaC-SiaD complex.
Assay [10] concerns the target SiaD^S50A-Q54A (Pseudomonas aeruginosa). The experiment in a line: SEC-MALS; SiaC-SiaD complexes (wild type and SiaD motif mutants) at 2 mg/ml, WTC-030S5 column, 20 mM HEPES pH 7.0, 150 mM NaCl, DTT.
The target of assay [11] is SiaD^S82A-Q86A (Pseudomonas aeruginosa). The assay is described as above.
Assay [12] deals with SiaD (full length, sumo-His tag removed) (Pseudomonas aeruginosa). The experiment in a line: ITC; SiaD in the cell, SiaC or SiaC mutant in the syringe, 25°C, MicroCal iTC200 or PEAQ-ITC.
The target is the same in assay [13]. Kind of assay: SPR; Biacore T200, protein amine-coupled to a CM5 chip (about 5000 RU), 25°C; running buffer 10 mM Tris-HCl, 150 mM NaCl, 0.05% P-20, pH 7.5; SiaC or SiaC^M3 at varying concentrations over SiaD; fits to a 2:1 interaction.

`Nc1nc2c(ncn2[C@@H]2O[C@H](COP(=O)(O)OP(=O)(O)OP(=O)(O)O)[C@@H](O)[C@H]2O)c(=O)[nH]1` [GTP] showed a Kd on SiaD [1] of 12000 nM.

Turning to `Nc1nc2c(ncn2[C@@H]2O[C@H](COP(=O)(O)CP(=O)(O)OP(=O)(O)O)[C@@H](O)[C@H]2O)c(=O)[nH]1` [GpCpp], the “X-ray crystal structure of SiaC-SiaD-GpCpp complex, 2.65 Å” value on SiaD [2] was “a non-hydrolyzable GTP analog GpCpp molecule was observed to bind in the active site of SiaD-A”.

As to `Nc1nc2c(ncn2[C@@H]2O[C@@H]3CO[P@](=O)(O)O[C@H]4[C@@H](O)[C@H](n5cnc6c(=O)[nH]c(N)nc65)O[C@@H]4CO[P@](=O)(O)O[C@H]3[C@H]2O)c(=O)[nH]1` [c-di-GMP], the “HPLC DGC activity assay with 50 μM c-di-GMP; thermal shift (+7.1 °C at 25 μM); S” value on SiaD [3] is “the enzyme activity of SiaD was inhibited by c-di-GMP more extensively than the SiaC–SiaD complex”.

In the case of “SiaD (full length, sumo-His tag removed) (enzyme)”, the stoichiometry N in assay [4] amounted to 5; in assay [5] it was 2; in [6], 2; in [7], 5; in assay [8], 5; in assay [9] it was 5.

B1: SiaC (sumo-His tag removed) (natural protein)
chain: MSDLHIPGTQSTPAIQGDWQAGRLSMQGDSYPENSYELFGQVIDWVERFLADGQRPLELDLRLLYLNTSSIKAMMDILDLLEEAHQGGRPVSLRWHYDRRNERVAELAEEFREDCSFPFAIQAHDE
Take B1: the stoichiometry N (SiaC per SiaD (2:4 SiaD:SiaC)) in assay [10] and in assay [11] was 2 throughout. Also, in assay [12], the Kd worked out at 49.8 nM.

B2: SiaC-His (natural protein)
chain: MSDLHIPGTQSTPAIQGDWQAGRLSMQGDSYPENSYELFGQVIDWVERFLADGQRPLELDLRLLYLNTSSIKAMMDILDLLEEAHQGGRPVSLRWHYDRRNERVAELAEEFREDCSFPFAIQAHDE
B2: in [13], the Kd is 11.8 nM.

As a reminder, the Kd is the free concentration of one partner at which half of the binding sites on the other are occupied at equilibrium, for simple one-to-one binding. Read a high Kd as lower affinity. One may read the stoichiometry N as the number of molecules, sites or subunits per partner or assembly.
